These results are taken from PMC4850058, “TRIP6 antagonizes the recruitment of A20 and CYLD to TRAF6 to promote the LPA2 receptor-mediated TRAF6 activation” (Cell Discovery, 2016).

The target of this assay is T1, purified recombinant TRIP6 (UniProt Q15654 1-476).
T1 construct: TRIP6; source: purified recombinant protein
T1 sequence (looked up): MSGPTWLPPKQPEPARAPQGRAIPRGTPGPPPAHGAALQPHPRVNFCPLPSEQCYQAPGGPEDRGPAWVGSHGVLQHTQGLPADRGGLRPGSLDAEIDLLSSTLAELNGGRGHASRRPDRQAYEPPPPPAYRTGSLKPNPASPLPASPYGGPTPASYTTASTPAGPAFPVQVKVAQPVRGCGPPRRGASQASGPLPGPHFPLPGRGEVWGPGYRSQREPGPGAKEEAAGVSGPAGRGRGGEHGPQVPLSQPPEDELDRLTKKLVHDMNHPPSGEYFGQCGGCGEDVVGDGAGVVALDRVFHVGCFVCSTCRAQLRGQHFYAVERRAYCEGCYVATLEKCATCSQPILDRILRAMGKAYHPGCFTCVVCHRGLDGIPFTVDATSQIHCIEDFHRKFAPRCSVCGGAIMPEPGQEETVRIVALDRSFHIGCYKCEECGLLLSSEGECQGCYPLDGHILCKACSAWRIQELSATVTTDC
Briefly: pull-down; purified recombinant TRIP6 incubated with GST, GST-TRAF6 or GST-CT, 4 °C, 3 h; anti-TRIP6 immunoblot. The note with it: both partners purified. For orientation: Immunoblotting shows a protein as a band on a membrane.

B1: GST-CT mutant containing residues 239–530 of TRAF6 (domain or fragment, UniProt P70196 239-530, looked up)
chain: PIPCTFSVFGCHEKMQRNHLARHLQENTQLHMRLLAQAVHNVNLALRPCDAASPSRGCRPEDPNYEETIKQLESRLVRQDHQIRELTAKMETQSMYVGELKRTIRTLEDKVAEMEAQQCNGIYIWKIGNFGMHLKSQEEERPVVIHSPGFYTGRPGYKLCMRLHLQLPTAQRCANYISLFVHTMQGEYDSHLPWPFQGTIRLTILDQSEALIRQNHEEVMDAKPELLAFQRPTIPRNPKGFGYVTFMHLEALRQGTFIKDDTLLVRCEVSTRFDMGGLRKEGFQPRSTDAGV
notes: TRAF6 carboxyl-terminal domain, residues 239-530; also called TRAF6-CT domain; carboxyl-terminal domain; source: purified recombinant GST-tagged protein (pGEX-6P3)
As to B1, the binding result is “binds”.
